Test results: the supplement of paper PMC9170038

Tested on: MS2 coat protein
Assay: apparent KD of MS2 coat protein; designed switch direction (-1 OFF switch, 1 ON switch): 1; higher = weaker reporter binding
How it was run: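 SNAP-549-labelled MS2 coat protein was titrated, doubling from 0.7 or 1.5 nM to 3 µM, over designed RNA switches transcribed on Illumina chips by stalled E. coli RNA polymerase. Runs were done without input, with 200 uM small-molecule ligand, or with an oligonucleotide input. Apparent KD is the per-design median over clusters of curve-fitted normalised fluorescence.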

[1] = Eterna round: R95, input ligand: FMN 200 uM
[2] = Eterna round: R95, input ligand: microRNA oligo, concentration not stated
[3] = Eterna round: R95, input ligand: none
[4] = input ligand: microRNA oligo, concentration not stated

Sequence	apparent KD of MS2 coat protein [1] [nM]	apparent KD of MS2 coat protein [2] [nM]	apparent KD of MS2 coat protein [3] [nM]	apparent KD of MS2 coat protein (input ligand: FMN 200 uM) [nM]	apparent KD of MS2 coat protein [4] [nM]	apparent KD of MS2 coat protein (input ligand: none) [nM]
UGGAUCUAGGCUUGCCUGGGUCCAUGUUGACAUGAGGAUCACCCAUGUGUAUUUUUUAAGCUUUUUGUUUGUCAACA [JL A Humble Attempt mod 6] (puzzle: Sensor for hsa-mir-208a)	42.4	13.2	42.5			
UGGAUCUAGGCUUGCCUGGGUCCAUGUUGACAUGAGGAUCACCCAUGUGUAUUUUUUUAGCUUUUUGUUUGUCAACA [JL A Humble Attempt mod 5] (puzzle: Sensor for hsa-mir-208a)	39	15.1	41.1			
UGGAUCUAGGCUUGCCUGGGUCCAUGUUGACAUGAGGAUCACCCAUGUGUAUUUUUUUUGCUUUUUGUUUGUCAACU [JL A Humble Attempt mod 11] (puzzle: Sensor for hsa-mir-208a)	25.2	12.7	26.5			
UGGCUCAGACGAGGAUAUAUGUGAUCACAUGAGGAUCACCCAUGUCUCGAGCUUCGGCUCGAGACAUAGAAGGUGUCUGAGCCA [SSNG2/3-C2] (Eterna round: R96, puzzle: Same State NG 2)				14.8	96.2	49.5
UGGCUCAGACGAGGAUAUGAUCAUGGCGCUUCGGCGCAUACAUGAGGAUCACCCAUGUAAAGUGAUCAGAAGGCGUCUGAGCCU [SSNG2/7-A3] (Eterna round: R96, puzzle: Same State NG 2)				14.8	11.1	15
UGGCUCAGACGAGGAUAUGAUCAUGGCGCUUCGGCGCAUACAUGAGGAUCACCCAUGUAGGGUGAUCAGAAGGCGUCUGAGCCA [SSNG2/8-A2] (Eterna round: R96, puzzle: Same State NG 2)				55.8	413	460
UGGCUCAGAGCAGGAUAUACGUGGUCACAUGAGGAUCACCCAUGUCUCGAGCUUCGGCUCGAGGCGUAGAAGGGCUCUGAGCCU [SSNG2/6-B3] (Eterna round: R96, puzzle: Same State NG 2)				118	131	258
UGGUAACAUGAGGAUCACCCAUGUCAAAUGAAUCGAGGAUAUGGGAAUUAACAACACAAACUAGAAGGCGAAUUUG [Altered State 1-8 - Jieux - Same State 1] (Eterna round: R96, puzzle: Same State 1)				316	151	314
UGGUAACAUGAGGAUCACCCAUGUCAAAUGAAUCGAGGAUAUGGGAAUUAACAACACAAACUAGAAGGCGAAUUUG [Altered State 1-8 - Jieux - Same State 1] (puzzle: Same State 1)	293	488	180			
UGGUAACAUGAGGAUCACCCAUGUCAAAUGAAUCGAGGAUAUGGGAAUUAACAAUAUAAACUAGAAGGCGAAUUUG [Altered State 1-7 - Jieux - Same State 1] (puzzle: Same State 1)	144	284	290			
UGGUACAUGGGAGGAUAUCAUGUAGAAACAUGAGGAUCACCCAUGUAGAUGGCCGGUAACCGGGAUGAGAAGGCCCAUGUACCU [JL SSNG1 3.64] (Eterna round: R96, puzzle: Same State NG 2)				27	22.4	30.3
UGGUACAUGGGAGGAUAUCCUCAGGAGACAUGAGGAUCACCCAUGUAAUUUAAGCCGAAAGGCAUGGAGAAGGCCCAUGUACCU [JL SSNG1 3.80] (Eterna round: R96, puzzle: Same State NG 2)				19.5	94.1	129
UGGUACAUGGGAGGAUAUCUCAUGGAGACAUGAGGAUCACCCAUGUAGAUGGGCGGUAACGCCGGAGAGAAGGCCCAUGUACCU [JL SSNG1 3.70] (Eterna round: R96, puzzle: Same State NG 2)				29.2	41.6	58.1
UGGUACAUGGGAGGAUAUGGGCAAGGGACAUGAGGAUCACCCAUGUAUUAAAAGCCGAAAGGCAUCUAGAAGGCCCAUGUACCU [JL SSNG1 3.87] (Eterna round: R96, puzzle: Same State NG 2)				14	42.7	50.2
UGGUGUAACAUGAGGAUCACCCAUGUCACAACCCGGAUAGAGUAGGAUAUGGGCUGAUCACGCAUCCAGAAGGGCUCAUACUUU [Eternabot solution 19] (Eterna round: R96, puzzle: Same State NG 3)				19.7	14.3	16.8
UGUAAACAUGAGGAUCACCCAUGUAAUAAUAUGGGAGGAUAUGGGAAUUAAUUAAUUAAACCAGAAGGCCUAAUGU [Mat - Same State 1 - D88] (puzzle: Same State 1)	30.9	388	280			

Sequence	apparent KD of MS2 coat protein [1] [nM]	apparent KD of MS2 coat protein [2] [nM]	apparent KD of MS2 coat protein [3] [nM]	apparent KD of MS2 coat protein (input ligand: FMN 200 uM) [nM]	apparent KD of MS2 coat protein [4] [nM]	apparent KD of MS2 coat protein (input ligand: none) [nM]
UGUAAACAUGAGGAUCACCCAUGUUUUUUCAUGGGAGGAUAUCUGAGUUAAGUAUAUUAAGGAGAAGGCCUUGUGU [× ×•×ª×• ×ž×“×™× ×” × ×—×ª-03] (puzzle: Same State 1)	90.2	18.7	24.7			
UGUACCUUCACAGGAUAUCAUGCGAAAAUUGCGUGAGAAGGGUGAAUACGGUGUUCAUUGUUGCACAUGAGGAUCACCCAUGUA [SameState NG1 #55] (Eterna round: R96, puzzle: Same State NG 1)				269	74.9	259
UGUAUACAUGAGGAUCACCCAUGUCAACGUAGUCGAGGAUAUGGGCAGCCGUGAGGCGUACCAGAAGGCGAAGAGG [JL-ss1-3.05 ViennaUCT mod] (Eterna round: R96, puzzle: Same State 1)				36.5	104	151
UGUAUACAUGAGGAUCACCCAUGUCAACGUAGUCGAGGAUAUGGGCAGCCGUGAGGCGUACCAGAAGGCGAAGAGG [JL-ss1-3.05 ViennaUCT mod] (puzzle: Same State 1)	27.6	95.3	172			
UGUUAACAUGAGGAUCACCCAUGUCAAAUGAAUCGAGGAUAUGGGAAGUAAUAAGAGAAACUAGAAGGCGAAGUUG [Altered State 1-2 - Jieux - Same State 1] (puzzle: Same State 1)	276	353	192			
UGUUAGUAGUGAGGAUAUACAUACACCUUACAUGAGGAUCACCCAUGUUUUAAUAUUGAUAGUUAGUAGAAGGCACAUGAUUAU [JR_SSNG2_Sub043] (Eterna round: R96, puzzle: Same State NG 2)				22.1	35.8	45.7
UGUUAUUUGACAGGAUAUUGAUUGUAAAGUUUUUACAUGAGGAUCACCCAUGUUGUUCAUUCGAACAAGAAGGGUCAAGUUUUU [JR_SSNG2_Sub019] (Eterna round: R96, puzzle: Same State NG 2)				1070	48.2	172
UGUUAUUUGACAGGAUAUUGAUUGUUAAGUUUUUACAUGAGGAUCACCCAUGUUGUUCAUUCGUACAAGAAGGGUCAAGUUUUU [JR_SSNG2_Sub020] (Eterna round: R96, puzzle: Same State NG 2)					52.6	
UGUUGUAUUACAGGAUAUCUAAUAUUUUUAUUUAGAGAAGGGUAUUCACAUGAGGAUCACCCAUGUAUAUACGAGGAAGUUGUG [JMF's solution 8] (Eterna round: R96, puzzle: Same State NG 1)					24.6	
UGUUGUAUUACAGGAUAUCUAGUAUUUUUAUUUAGAGAAGGGUAUUCACAUGAGGAUCACCCAUGUAUAUACGAGGAAGUUGUG [JMF's solution 9] (Eterna round: R96, puzzle: Same State NG 1)					28	
UGUUGUAUUACAGGAUAUCUAGUGUUUUUAUUUAGAGAAGGGUAUUCACAUGAGGAUCACCCAUGUAUAUACGAGGAAGUUGUG [JMF's solution 34] (Eterna round: R96, puzzle: Same State NG 1)					43	
UGUUGUAUUACAGGAUAUCUAUUGUAUUUAUUUAGAGAAGGGUAUUCACAUGAGGAUCACCCAUGUAUAUACGAGGAAGUUGUG [JMF's solution 73] (Eterna round: R96, puzzle: Same State NG 1)					46.7	
UUAAAGAAGUAAGGAUAUACAUGAGGAUCACUCGUAGAAGGUACUAAACAUGAGGAUCACCCAUGUACCGGUCCGUAGACUGGA [Mat - Same State NG 1 - JL mod - D2] (Eterna round: R96, puzzle: Same State NG 1)				960	248	483
UUAACAUGAGGAUCACCCAUGUAUAGGGAGUUUGCAAUUUGACAGGAUAUUGAAGAUUUAUAUAGCAAGAAGGGUCGUUAGUCU [JR_SSNG3_Sub005] (Eterna round: R96, puzzle: Same State NG 3)				38	44.9	53.6
UUAAUGAUGUAAGGAUAUACAUGAGGAUUUCUCGUAGAAGGUACAAGACAUGAGGAUCACCCAUGUGUCGCUCAAUAGAGCGUA [Mat - Same State NG 1 - JL mod - D19] (Eterna round: R96, puzzle: Same State NG 1)				268	138	292
